The target of this assay is T1, Human LRRC15 Protein, His Tag (Acro Biosystems) (human, UniProt Q8TF66 22-538, limits assumed).
T1 construct: not shown: His tag
T1 sequence (looked up): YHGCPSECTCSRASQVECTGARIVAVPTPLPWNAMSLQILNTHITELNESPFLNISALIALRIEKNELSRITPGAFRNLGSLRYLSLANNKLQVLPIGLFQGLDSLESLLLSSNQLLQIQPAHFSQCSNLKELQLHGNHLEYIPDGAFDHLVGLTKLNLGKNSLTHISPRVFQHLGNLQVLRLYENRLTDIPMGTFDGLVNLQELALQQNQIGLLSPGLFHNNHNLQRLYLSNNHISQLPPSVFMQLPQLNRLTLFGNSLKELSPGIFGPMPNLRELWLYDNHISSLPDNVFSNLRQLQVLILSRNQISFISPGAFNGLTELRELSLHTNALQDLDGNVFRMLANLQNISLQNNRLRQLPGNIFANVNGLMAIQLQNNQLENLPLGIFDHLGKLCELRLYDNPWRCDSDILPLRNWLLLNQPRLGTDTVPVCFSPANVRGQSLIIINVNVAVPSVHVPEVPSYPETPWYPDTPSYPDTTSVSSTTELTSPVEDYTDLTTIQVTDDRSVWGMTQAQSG
In words: BLI (Octet), Ab on anti-human Fc sensor, LRRC15 associated at pH 7.4. Here is the method:
For each individual plot, antigen binding proteins were captured on anti-human Fc biosensors and associated with LRRC15 at pH 7.4. Dissociation was at pH 7.4 (black) or pH 5.4 (grey). Major X-axis ticks=100 seconds, with left dashed vertical line=0 seconds. Major Y-axis ticks=0.5 nm and octet plots are shown MYT5712 and MYT6080-MYT6121.
After allowing for a period of protein expression, cell culture supernatants are collected, quantified, and the pH dependence of the variant is evaluated using biolayer interferometry (BLI) or other methods known to the art. Briefly, cell culture supernatants are normalized to an antibody expression level of 50 μg/mL, and captured on an anti-human Fc sensor (Forte Bio). A baseline is established using 1× kinetics buffer (Forte Bio), and the sensor is associated with 100 nM of LRRC15 in 1×PBS at pH 7.4 for 300 sec to generate an association curve. In the dissociation phase, the antibody-antigen complex on the sensor is exposed to 1×PBS at either pH 5.5 or pH 7.4 for 300-500 sec. […]
In general terms: Biolayer interferometry detects binding as a change in optical thickness at a sensor tip.

B1: MYT8511 (antibody, V domains shown)
VH: QQQLVESGGGLVKPGASLTLTCKASGHHFSGSYWICWVRQAPGKGLEWIGCHNGGSLDITYYASWAKGRFTISKASSTTVTLQKTSLTAADTATYFCASDTSYTAYGNFYFNLWGPGTLVTVSS
VL: AQVLTQTASPVSAAVGGTVTINCQSSQSVLNNNWLAWYQQKPGQPPKLLIYDASSLASGVPSRFKGSGSGTQFTLTISDLESDDAATYYCQGEFSCGSADCNAFGGGTEVVVKG
notes: Rabbit 24D9 VH combination variant; also called 24D9 VH combo F27H, S28H, I52H
In the case of B1, the binding result is reported as “no binding (tested: 50 nM)”.

These data come from patent US20250352661A1 (MYTHIC THERAPEUTICS, published 2025).
